Data reported in a protein production outcome set (Wang et al. 2014).

Assay: label from the status in PepcDB records
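Also: failed if final PepcDB status was selected cloned or expressed and not failed if soluble or beyond.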

Row | Sequence | protein production
1 | MATKNSAPLASFIDLLLDAVCAVDVEGRFVFVSAACERVFGYTADELIGRPMIELVHPADRERTLQAAREIMGGVPKPNFENRYVRKDGRVAHILWSARWSEVDQLRIAVARDITERKQAESRQAALYAISEAAHATEDLLVLFRHVHRIIGEWLPALNCSLALYDERSASLSFPYHVDDCEGSPELPGTLIERFCVEVLQCGQPLLLAPECPVNRVLWSEFAAIQGSRCWLGVPLNSQKGTIGVLMVKSAPGTESYSEQDQELLQYVSAQLAAAIERKQLHARLHYMAEYDQLTHLPNRELLRERLRSALARARRESGRMALLYVDLDKFKEVNDTCGHAVGDMLLQAVANRLKGCVRETDTVARIGGDEFVILLESVQHSEDAQRVAEKIRRTLGEPLRLDGHSLNILPSIGIGLYPEHGLEEKQLFKHADEAMYAVKRAQKSRSNA | failed
2 | MSLANKPLAKALETISGIPITPFRKSDGSIDWHHYKETVDRIVDNGIDVIVPCGNTSEFYALSLEEAKEEVRRTVEYVHGRALVVAGIGYATSTAIELGNAAKAAGADAVMIHMPIHPYVTAGGVYAYFRDIIEALDFPSLVYFKDPEISDRVLVDLAPLQNLVGVKYAINDLPRFAKVVRSIPEEHQIAWICGTAEKWAPFFWHAGAKGFTSGLVNLLPQKAVEMLEALRNNDNDAVWRIWEDIVPFEDLRGKYNQGNNVVVIKEAMEMLRQNAGVTRAPVNELSNEDKQLVTELLSSWKLLQPTKGEGHHHHHH | not failed
3 | MKPIVIKRDGSKAPFNRDRIQAAVESAAEHADQEIAIYALNVALAVELKLRDYDEVHITEIQTLVENELMQGPYKALARSYIEYRHDRDVAREKQSK | failed
4 | MPKTKLTSPPFKILKCTECDACINVPSILQSNEQAECPRCHHLLASGTRWSLHRCAMIALSILILMPFSLNYPLLSLHLLGIKIDASIWDGIWKMAVGGYEYTAFMIFICAVVMPITFALLVIMLWLAKIFQIKPRSVLLFLGYIKAWVMFDVYLVALGVTIFKVREYATLEINIYLIPFIFTALLTTLLFIKLNLSALWQEFYPECTSVYTKQAVELCPACHYTFTQKSIHYDHQQKICCPRCQSPLNTSDKLKLQATWATLIAGIIMLFPANLLPISGIYLTGALSEDTLISGVISFVKSGSYFVAFVVFFASIFVPISKIFIMLYLLACVHFKWQHSIKWQMRLLHLVHFVGRWSMLDLFVLALMMSLVTRGEIINFTVGPGAFYFGAAVFCTMLSTSQFDSKLIWKIYDREK | failed
5 | MSVELEESQVCEACGCAGEIGFIIKEGDEVADVTIFAETKDALESELAKYIELAKSVCAGVEYNVSELTEESKELTARFKFEVSAEKLIFELKTRSLARLEHHHHHH | not failed
6 | MITLTKEGGPADLDGVTHLSIGVSWDPTAGSSGGVLGKLRRKTGTDLDLIAVAMQGGDPVRLAGLDSLDPMGNGSLLHSGDNQTGHGDGDDETVTVEFARLPSAITSIVFVAAAYKKGSSFQKARNISFKVYDATGGSSEQVADIWPSLLSQDNGCAVAKAVRVGGTWKLEVVNETGKIKQGDEHALMRFAVSK | failed
7 | MRVFPVTLGPLQENAYLVETGEGPVLIDPGDEPEKLLALFQTTGLIPLAILLTHAHFDHVGAVAPLVEALDLPVYLHPLDLPLYEGADLAARAWGLAIPKPPLPVRPLEEGMRLFGFQVLHLPGHSPGHVAFYDPEGAQVFSGDLLFRGSVGRYDLPGADPKALFASLKRLLSLPPETRVHPGHGPGTTLGLEARTNPFLTGLEWEA | not failed
8 | MKDIYELLNDIDIDEKELEEIEASEIEKEKVKRNVKQSIRTKKKMKSWKKGVAAASILVGLSVTTLGIGFPTYAGGLPIVGDIFRFLDNGRTGLYENYKEFSTELNMTRESNGVKVTINDVISDGRTLSITYSLESEQDLGDDPIILGGLDIMDAHGSSGSGKMTKVTEKKYVGMVTTTHHDSNKKDKVNFRWNIEGIEIPDRKKSIQGHWNFALTVKSMDSKERTIGGSSEKEGIKANMEKVAMSPVSFILYYNQEVSKGARKEWDSVDVELTVKDDLGNDYSGEGNGGSGNDPYNIRWSATFQKLNENATKLIVTPRVHLRVHTPENHGGVEYVNGKEKKIEVPNKEAKKKDIVLDDIVIDLKK | not failed
9 | MPEEALIVVDMQRDFMPGGALPVPEGDKIIPKVNEYIRKFKEKGALIVATRDWHPENHISFRERGGPWPRHCVQNTPGAEFVVDLPEDAVIISKATEPDKEAYSGFEGTDLAKILRGNGVKRVYICGVATEYCVRATALDALKHGFEVYLLRDAVKGIKPEDEERALEEMKSRGIKIVQF | not failed
10 | RGIIRLIKDNKSLTMKNTEVMLHGSSLAFDASTLEIYAALLNGACLSIIDKEDLIDSQTLKEKLKNDHVNRAFFTTPLFNSLCEQDPSVFNELEQVIIGGDRASNKHLKIVMKNSKKTQFYNGYGPTENTVFTTMHNIQYSELEGDIPIGKA | failed
11 | MNSEKDVMADASAMRTSMHALAVYGATPLFVLLWSGGAIFSRVGLSHASPFAFLTLRFVIALPLLAAIGVARRCMLPAPGTRVRVAVTGALMIGGYSISYLLALDFGMTPGVLATVLGVQPILTLLWMERRVSVARLAGLTLALAGLVTIVADSLMAARFSMAGWGAALAALACMTVGAIGQKGIRQAAVEILPLQYTVALAMCLLCVPFQPFRFEHVPGFFFPLLWMGIVISVVATLLFYRLIQAGNLVNVTSLFYLVPPVTVLLDFVALSNRPAPLALVGMIAIPVGLALAFRAGR | failed
12 | MKFGRRATSRTEPGKRCVARPRYNSAMSEFTDSAAGRSATSPADASSSALRRLRAIQPLPDQLISQIAAGEVVERPASVVKELVENALDAGAGTLRILLDEGGVKRISITDDGCGIPAAELPLALMRHATSKIRSLAELEAVATLGFRGEALASIASVAEMFITSRTEDDAHATRIDAQTGVLAPAAGTRGTTIEVRELYFSTPARRKFLKSEQTEFGHCLEMIRRAALARPDVAISVLHNGRAVEHWNASEPAARVAKILGDGFATAHLPLDERAGPLAVYGCAGLPTASRGRADQQYFFVNGRFVRDKLLTHAVRAAYEDVLHGDRYPSYVLFLDLPPEAVDVNVHPSKIEVRFRDSRSIHQFVFHAVQRALARHAGASPETTAGGHAAHLSPVEPAQAGSPAAPSASFVRPDAAAAGAGVGHPAPGNTWLRQSRMTQGTLPVAQPLALYDALFGRKDSGAGTPHGTTGVLEARDAPDAPGAPLFASAPGGAAMPAFSAAGASDPAMHDEQPLGFAVGQIHGIYVLAQNARGLVIVDMHAAHERILYEQFKRALADRTVAVQTLLIPVSMTATPVEVGTAEEERETLDALGFDLAVLSPTTLAIRAVPALLKDADLQALARAVLADLHAFGGSRVLTERQHELLGTLACHHAVRANRRLTLDEMNALLRQMEATERADQCNHGRPTWYQLTLGDLDKLFMRGQ | failed
13 | MGHHHHHHSHMARPLVPSSQKALLLELKGLQEEPVEGFRVTLVDEGDLYNWEVAIFGPPNTYYEGGYFKARLKFPIDYPYSPPAFRFLTKMWHPNIYETGDVCISILHPPVDDPQSGELPSERWNPTQNVRTILLSVISLLNEPNTFSPANVDASVMYRKWKESKGKDREYTDIIRKQVLGTKVDAERDGVKVPTTLAEYCVKTKAPAPDEGSDLFYDDYYEDGEVEEEADSCFGDDEDDSGTEES | failed
14 | MNDPVDDDAEPTGNHADGVTVADLIAKVAGSDGATPRRSRRRRAAEPDPEPEFEAQAEPAPKPTPEPEILPVAPEPPASADPTEVLQAIRYDEYPGDHAGEYPGDHPDAAYAGAADPNLDAIFEPAFAPMPFAGVTAAHPDLDSCDTEIIPAVPAADEHADLPDTHRDSWRRRTRPQHAGTDDFDEPHRRHPNRKAMIVGRAAAAMIAALTLVLTGGAWQWQSSKNDSLNKVAALDLGSRDILDPNAQFGDENFLIVGMDSRFGENSQMGAGSTDDADGARSDTIMLVNIPASRERVVAVSFPRDLAITPMKCEPWDPETGTYGPIWDEASGTYGPDEVYTETKLNSAFAFGGPKCLVKVIQKISGLSVNRFMAVDFAGFSKMVDALGGVEVCSTTPLEDYELGTVLANAGRQIVDGHTALNYVRARQVTTEYNGDYGRIKRQQLFLSSLLRSLISKDTFFSLSKLNNVVNMFIADSYVDNIKTKDLVDLGQSVQGVNAGRITFVTIPTTGYADEWGNEQPRMDDVRALFDAIINDDPLPGEKNPDNTPVPGTPESTTNTAQAPQSTSPAPQPAHAAPAPGSAEMVDTVTTEPQQVTVKVSNSTGQSGLAATAAGELEQHGFNVTTPDDYPGPLDATTVFFSPGNEEAAATVASSFSNAAIERVAGLGDVVQVVLGTDFMAVNPPSPSGSAIQVKLVRGTSSTPTQLPEDLSVTNAADATCE | failed
15 | MTNTPRQGATLAVLIDADNAAPAIVEGLLAEVAKYGVAAVKRIYGDWTRPNLSGWKDRLLAHSIQPIQQFRYTVGKNATDSAMIIDAMDLLYTGRFDGFCIVSSDSDFTRLASRIREQGLTVYGFGERKTPKPFVTACDKFIYSDVLRADADSDSDSETGSAPARKRTTQELRQDSRLVRLLQSASQAVSDEDGWSTLGGIGNYIAKQAPEFDSRNYGYGKLSELVTATNLFEVETRNGGNNKTLWVRLKKRNKGEGGGQPQPAQPQQQQQPQQQGQSSQPSQSQQPSQQAQPQQQRPAPAPARPVQPAPEPVAVIPATEPARVTEEEDDDAAGSASTLIQEAVEVSTERPKAGGKRGKRPDVTLSDTPWPIDQSVFSAPGATVLSAQVDVPEETKAAAPAEEAKKPAKKKPAAKKAAPRKRAPAKKAAAAE | failed
16 | MIRQLSLKDYEGVAGSALIDEIRSLGESLQGYNVRHINSTIIGGGVAEILSSLVPLMEDVGLTVNWEVLAGTTEFFHTTKLFHNGMHGQPVNITGEMLENYLAIAQKNQNLLDGDADLVVIHDQQPLGLTAFRGRTRGRWLWYCHVDPRYAVPEVWYFLAPMVATCDAAVFHLPEYARDLEHHHHHH | failed
17 | MSTDRETVRSYDAVAAEYAAEAAVMPEWVATEIDVFVTELSGSGRVLEIGSGGGRDALELEKRGMSVRRTDISKGFVELLRESGFEADLLDPLTDDLADPQRPSMPYDGIWACACLIHVARGDFGTVLGRLAEATRSGGRLHVSVREGDGEDLSTHGSAAAPRRYVETYWREPALRSALTDAGWIVNDVRRYVGRPHDRWLSVRASRA | failed
18 | MLLAMALLIIGLLLVAYGADRLVFAASILCRTFGIPPLIIGMTVVSIGTSLPEIIVSAAASLHGQLDLAVGAALGSNITNILLILGLAALVRPFTVHSDVLRRELPLMLFVSVVAGSVLHDGQLSRSDGIFLLLLAVLWLLFIVKIARLAERQGNDSLTREQLAELPREGGLPVAFLWLGIALVIMPMATRMVIDNATVLANYFAMSELTLGLTVIAVGTSLPELATAIAGVRKGENDIAVGNLIGANIFNLAIVLGLPALIAPGEINPLAFGRDYSVMLLVSVVFALLCWRHPRQIGRGAGILLTGGFIVWLAMLYWLSPLLVG | failed
